Laboratory results as given in patent US20200207829A1, “CHIMERIC RECEPTORS” (Oxford University Innovation Limited, priority 2017, published 2020).

How the values were obtained:
Assay in all cases: cell-based or functional assay
TMt-dCas9(N/C)VP64 = molecular target: TMt-dCas9(N/C)VP64
TMt-NES-dCas9VP64 = molecular target: TMt-NES-dCas9VP64
[1] = molecular target: VEGFR2:TEV(N)-NES-dCas9(N)/VEGFR1:TEV(C)-NLS-dCas9(C)VP64 heterodimer, both with TCS(QG)
[2] = molecular target: dCas9(N/C)-synVEGFR1/2 (heterodimer of dCas9(N)-synVEGFR2 with TCS(QL) and dCas9(C)-synVEGFR1 with TCS(QG))
dCas9(N/C)-synVEGFR1/2RI = molecular target: dCas9(N/C)-synVEGFR1/2RI
dCas9(N/C)-synBDKRB2 = molecular target: dCas9(N/C)-synBDKRB2

Chain of VEGFA121 (P15692 other isoform, or with tags, fused parts or gaps limits assumed): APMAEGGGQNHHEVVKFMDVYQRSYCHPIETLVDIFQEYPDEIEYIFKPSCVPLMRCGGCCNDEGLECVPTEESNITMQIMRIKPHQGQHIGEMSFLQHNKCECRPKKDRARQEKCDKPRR

TEV protease (from UniProt P04517 2038-2273) (enzyme)
fold increase in output reporter activation score (TMt-dCas9(N/C)VP64): 234 fold
fold increase in reporter activation score upon TEV expression (TMt-NES-dCas9VP64): 35 fold

VEGFA121 (from UniProt P15692 181-395) (ligand)
EYFP activation score, VEGFA121-dependent ON/OFF fold differential (HEK-293T reporter assay) [1]: 5.5 fold
ASCL1 mRNA levels, RT-qPCR (FIG. 2F legend) [2]: 50 fold
ASCL1 mRNA levels, RT-qPCR, relative to the no-agonist condition [2]: 48.3 fold
TNFα mRNA, RT-qPCR, relative to no-agonist conditions [2]: 18 fold
TSP-1 mRNA, RT-qPCR, relative to no-agonist conditions [2]: 16.2 fold
fold increase in EYFP activation score (FIG. 2D) [2]: 1180 fold
fold increase in EYFP activation score (HEK-293T reporter assay) [2]: 1000 fold
EYFP target gene induction with VEGFA121 and rapamycin together (AND gate, with FRB-VP64) (dCas9(N/C)-synVEGFR1/2RI): > 90 fold

Bradykinin (from UniProt P01042 381-389) (peptide)
fold increase in EYFP output activation score (HTLA cells) (dCas9(N/C)-synBDKRB2): > 900 fold
half-maximal effective agonist concentration (EC50), EYFP reporter dose-response, 0.01 nM-10 µM bradykinin (dCas9(N/C)-synBDKRB2): 603 nM
